# Where two headings read alike, the source gives them in different places.
# T1: IL-2Rα (CD25) on primary human CD8^+ CD25^+ T cells (human, UniProt P01589 22-272)
# T1 sequence (looked up): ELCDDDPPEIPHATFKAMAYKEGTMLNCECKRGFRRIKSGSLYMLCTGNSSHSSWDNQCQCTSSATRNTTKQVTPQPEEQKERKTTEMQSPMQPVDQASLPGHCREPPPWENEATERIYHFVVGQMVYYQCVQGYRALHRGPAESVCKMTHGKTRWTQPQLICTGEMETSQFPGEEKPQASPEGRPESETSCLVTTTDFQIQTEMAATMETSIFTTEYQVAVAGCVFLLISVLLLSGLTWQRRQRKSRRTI
# T2: IL-2Rα-Biotin (Homo sapiens (Human), UniProt P01589 22-217, biotin on the avi tag (enzymatic labeling with His-BirA))
# T2 construct: also called CD25; IL-2Rα receptor
# T2 sequence: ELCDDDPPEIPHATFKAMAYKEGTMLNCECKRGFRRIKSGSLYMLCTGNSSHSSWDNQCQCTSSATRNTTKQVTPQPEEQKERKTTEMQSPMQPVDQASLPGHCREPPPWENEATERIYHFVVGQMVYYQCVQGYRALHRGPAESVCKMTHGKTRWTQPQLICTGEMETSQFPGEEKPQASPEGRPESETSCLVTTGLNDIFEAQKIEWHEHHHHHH
# T3: IL-2Rβ IH-Biotin (Homo sapiens (Human), UniProt P14784 27-240, biotin on the avi tag (enzymatic labeling with His-BirA))
# T3 construct: also called IL-2Rβ IH (in house); CD122
# T3 sequence: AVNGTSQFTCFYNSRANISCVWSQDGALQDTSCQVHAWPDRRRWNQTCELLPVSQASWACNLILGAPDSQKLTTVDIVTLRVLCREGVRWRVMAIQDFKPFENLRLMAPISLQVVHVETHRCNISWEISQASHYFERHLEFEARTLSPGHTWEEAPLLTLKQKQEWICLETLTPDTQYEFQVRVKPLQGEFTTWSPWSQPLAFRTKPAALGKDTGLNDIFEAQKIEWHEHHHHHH
# How the values were obtained:
# [1] = target: T1, IL-2Rα (CD25) on primary human CD8^+ …; experiment: cell-based or functional assay
# IL-2Rα-Biotin [2] = target: T2, IL-2Rα-Biotin; experiment: BLI (Octet Red96): biotinylated receptor on SA sensor, 100 nM Fc fusion in solution
# [3] = target: T1, IL-2Rα (CD25) on primary human CD8^+ …; experiment: cell-based or functional assay; remark: listed apart in the source
# IL-2Rβ IH-Biotin [4] = target: T3, IL-2Rβ IH-Biotin; experiment: BLI (Octet Red96): biotinylated receptor on SA sensor, 100 nM Fc fusion in solution, 1:1 model
# Procedure: A BLI affinity assay was performed according to the prior art (Estep, P, et al., High throughput solution based measurement of antibody-antigen affinity and epitope binning. MAbs, 2013.5(2): p. 270-8). […] Kinetic analysis was performed on the assay results using a 1:1 binding model.
# IL-2Rα-Biotin [5] = target: T2, IL-2Rα-Biotin; experiment: flow cytometry: yeast-displayed IL-2 stained with 50 nM IL-2Rα-Biotin
# Procedure: (§1) 1. 1×10⁶ cells from each sample were centrifuged to discard the supernatant, and washed with FACS buffer once for later use; [0133] 2. the cells were added to 100 μL of FACS buffer containing 50 nM IL-2Rα-Biotin and Anti Flag antibody, and incubated at room temperature for 30 min; [0134] 3. the mixture was centrifuged at 3000 rpm, 4° C. for 3 min, and washed with pre-cooled FACS buffer twice; [0135] 4. 100 μL of FACS buffer containing SA-PE and goat anti-mouse conjugated with Alex Flour-647 was added, and the mixture was incubated on ice for 20 min away from light; [0136] 5. after being washed twice with pre-cooled FACS buffer, the cells were resuspended in 100 μL of buffer, and the binding level of IL-2^mutant to IL-2Rα was assayed by a flow cytometer (BD, ACCURI C6). […] 1. […] 2. the cells were added to 100 μL of FACS buffer containing IL-2Rβ IH-Biotin (30 nM-100 nM) and Anti Flag antibody, and incubated at room temperature for 30 min; [0139] 3. following steps 3-5 described above, the binding level of IL-2^mutant to IL-2Rβ was assayed.
# IL-2Rβ IH-Biotin [6] = target: T3, IL-2Rβ IH-Biotin; experiment: flow cytometry: yeast-displayed IL-2 stained with IL-2Rβ IH-Biotin (30 nM-100 nM)
# Procedure: as §1
binder,measurement,setting,value
"IL-2^3X-FC fusion protein (Fc fusion, not shown: small tags and cut ends; a dimerising Fc or GST) APTSSSTKKTQLQLEHLLLDLQMILNGINNYKNPKLTDMLTFEFYMPKKATELKHLQCLERELKPLEEVLNLAQSKNFHLRPRDLISNINVIVLELKGSETTFMCEYADETATIVEFLNRWITFSQSIISTLT",EC50 (read off the curve) of p-STAT5 activation,[1],~6 nM
same,binding result,IL-2Rα-Biotin [2],no binding (tested: 100 nM)
same,EC50 (read off the curve) of p-STAT5 activation,[3],~7 nM
same,Kd,IL-2Rβ IH-Biotin [4],16 nM
"IL-2^3x displayed on the surface of yeasts (ligand, not shown: small tags and cut ends, Control on yeast cells) APTSSSTKKTQLQLEHLLLDLQMILNGINNYKNPKLTDMLTFEFYMPKKATELKHLQCLERELKPLEEVLNLAQSKNFHLRPRDLISNINVIVLELKGSETTFMCEYADETATIVEFLNRWITFSQSIISTLT",binding result,IL-2Rα-Biotin [5],no binding (tested: 50 nM)
"IL-2^H9 displayed on the surface of yeasts (ligand, not shown: small tags and cut ends, Control on yeast cells) APTSSSTKKTQLQLEHLLLDLQMILNGINNYKNPKLTRMLTFKFYMPKKATELKHLQCLEEELKPLEEVLNLAQSKNFHFDPRDVVSNINVFVLELKGSETTFMCEYADETATIVEFLNRWITFSQSIISTLT",binding result,IL-2Rβ IH-Biotin [6],binds

# Source: patent publication US20210221863A1 (Innovent, published 2021)
